Drawing on patent US8003599, this text covers L1 cleavage for one protein.

For the series, the target named is human L1 adhesion molecule (L1-CAM), wild type, on cells.
Chain of human L1 adhesion molecule (L1-CAM), wild type, on cells (chain, as listed by the source): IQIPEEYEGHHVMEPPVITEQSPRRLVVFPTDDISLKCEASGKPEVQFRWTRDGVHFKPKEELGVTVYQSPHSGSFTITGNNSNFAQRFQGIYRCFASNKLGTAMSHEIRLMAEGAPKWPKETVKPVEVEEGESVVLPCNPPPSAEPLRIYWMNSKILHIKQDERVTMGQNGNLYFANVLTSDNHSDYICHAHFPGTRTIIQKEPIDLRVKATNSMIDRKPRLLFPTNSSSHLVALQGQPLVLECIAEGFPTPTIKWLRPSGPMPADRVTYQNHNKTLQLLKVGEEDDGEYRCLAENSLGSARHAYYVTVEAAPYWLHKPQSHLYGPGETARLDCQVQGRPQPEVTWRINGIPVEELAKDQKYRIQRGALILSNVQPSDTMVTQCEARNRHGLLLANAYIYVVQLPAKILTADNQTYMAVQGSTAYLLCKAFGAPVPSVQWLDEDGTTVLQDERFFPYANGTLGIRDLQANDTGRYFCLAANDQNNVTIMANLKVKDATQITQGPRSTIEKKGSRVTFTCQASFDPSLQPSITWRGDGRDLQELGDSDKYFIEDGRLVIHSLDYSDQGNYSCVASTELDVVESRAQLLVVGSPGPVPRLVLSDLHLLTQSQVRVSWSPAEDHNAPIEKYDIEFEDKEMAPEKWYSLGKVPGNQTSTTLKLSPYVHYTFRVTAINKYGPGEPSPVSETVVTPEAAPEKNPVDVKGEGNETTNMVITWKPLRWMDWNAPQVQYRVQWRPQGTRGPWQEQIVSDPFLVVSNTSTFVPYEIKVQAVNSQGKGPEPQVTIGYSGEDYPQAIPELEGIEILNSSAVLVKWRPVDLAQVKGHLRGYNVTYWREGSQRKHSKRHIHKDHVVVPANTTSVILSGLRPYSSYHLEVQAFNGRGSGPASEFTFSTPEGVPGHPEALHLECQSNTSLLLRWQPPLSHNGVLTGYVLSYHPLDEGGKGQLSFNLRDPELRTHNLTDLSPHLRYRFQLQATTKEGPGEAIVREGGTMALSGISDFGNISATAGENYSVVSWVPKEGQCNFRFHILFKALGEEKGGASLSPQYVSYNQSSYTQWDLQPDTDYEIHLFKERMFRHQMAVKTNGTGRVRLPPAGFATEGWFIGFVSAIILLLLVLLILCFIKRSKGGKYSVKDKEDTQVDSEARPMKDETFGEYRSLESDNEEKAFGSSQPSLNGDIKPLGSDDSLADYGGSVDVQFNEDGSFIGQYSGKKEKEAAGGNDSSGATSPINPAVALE

B1: human ADAM10 (membrane-bound metalloproteinase) (protein)
chain: TTSAEKNTCQLYIQTDHLFFKYYGTREAVIAQISSHVKAIDTIYQTTDFSGIRNISFMVKRIRINTTADEKDPTNPFRFPNIGVEKFLELNSEQNHDDYCLAYVFTDRDFDDGVLGLAWVGAPSGSSGGICEKSKLYSDGKKKSLNTGIITVQNYGSHVPPKVSHITFAHEVGHNFGSPHDSGTECTPGESKNLGQKENGNYIMYARATSGDKLNNNKFSLCSIRNISQVLEKKRNNCFVESGQPICGNGMVEQGEECDCGYSDQCKDECCFDANQPEGRKCKLKPGKQCSPSQGPCCTAQCAFKSKSEKCRDDSDCAREGICNGFTALCPASDPKPNFTDCNRHTQVCINGQCAGSICEKYGLEECTCASSDGKDDKELCHVCCMKKMDPSTCASTGSVQWSRHFSGRTITLQPGSPCNDFRGYCDVFMRCRLVDADGPLARLKKAIFSPELYENIAEWIVAHWWAVLLMGIALIMLMAGFIKICSVHTPSSNPKLPPPKPLPGTLKRRRPPQPIQQPQRQRPRESYQMGHMRR
As to B1, the L1 cleavage result is given as “L1 cleavage required the membrane-bound metalloproteinase ADAM10”.
